According to patent publication EP4671269A1 (Akeso Biopharma Co., Ltd., dated 2025):

Key:
TGF-β1 [1] = biological target: T1, TGF-β1 (human, UniProt P01137 279-390); test: competitive ELISA vs TGF-βRII-His-Biotin, TGF-β1 coated
T1 construct: also called human TGF-β1; TGF-β1 protein

TGF-β1 [2] = biological target: T1, TGF-β1; test: indirect ELISA, TGF-β1 coated
TGF-β1 [3] = biological target: T1, TGF-β1; test: indirect ELISA, TGF-β1 coated; remark: listed apart in the source
human TIGIT-mFc [4] = biological target: T2, human TIGIT-mFc (human; mouse, UniProt Q495A1 22-141, limits assumed); test: competitive ELISA vs CD155-hFc-Biotin, TIGIT-mFc coated
T2 construct: not shown: Fc protein fragment of mouse IgG
T2 sequence (looked up): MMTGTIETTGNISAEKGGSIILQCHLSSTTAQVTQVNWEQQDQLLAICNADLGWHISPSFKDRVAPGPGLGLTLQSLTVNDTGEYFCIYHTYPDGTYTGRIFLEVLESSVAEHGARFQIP

[5] = biological target: T3, TIGIT on the cell membrane (293T-TIGIT, Jurkat-TIGIT-NFAT-Luc cells) (human, UniProt Q495A1 22-244); test: FACS, 293T-TIGIT cells
T3 construct: whole, on cells; also called cell membrane surface antigen TIGIT
T3 sequence (looked up): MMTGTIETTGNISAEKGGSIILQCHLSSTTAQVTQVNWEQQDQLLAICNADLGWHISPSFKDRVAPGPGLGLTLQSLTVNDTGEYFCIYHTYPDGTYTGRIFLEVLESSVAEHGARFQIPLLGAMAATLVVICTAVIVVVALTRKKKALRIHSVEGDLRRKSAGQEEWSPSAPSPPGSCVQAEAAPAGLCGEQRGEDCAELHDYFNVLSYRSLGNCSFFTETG

human TIGIT-mFc [6] = biological target: T2, human TIGIT-mFc; test: indirect ELISA, TIGIT-mFc captured on plate
[7] = biological target: T3, TIGIT on the cell membrane (293T-TIGIT, …); test: competitive FACS vs CD155-mFc, 293T-TIGIT cells
[8] = biological target: T3, TIGIT on the cell membrane (293T-TIGIT, …); test: competitive FACS vs CD112-mFc, 293T-TIGIT cells
human TIGIT-hFc = biological target: T4, human TIGIT-hFc (human, UniProt Q495A1 22-141, limits assumed); test: indirect ELISA, hybridoma screening
T4 construct: Screening antigen of the hybridoma ELISA; not shown: Fc protein fragment of human IgG
T4 sequence (looked up): T2 sequence (looked up)

B1: TGF-βRII-mFc (Fc fusion, UniProt P37173 24-159, looked up)
chain: IPPHVQKSVNNDMIVTDNNGAVKFPQLCKFCDVRFSTCDNQKSCMSNCSITSICEKPQEVCVAVWRKNDENITLETVCHDPKLPYHDFILEDAASPKCIMKEKKKPGETFFMCSCSSDECNDNIIFSEEYNTSNPD
notes: also called TGF-βR2-mFc; not shown: Fc protein fragment of mouse IgG
EC50 (TGF-β1 [1]): 6.47 nM | EC50 (TGF-β1 [2]): 0.356 nM | EC50 (TGF-β1 [3]): 0.271 nM

B2: 26B12H2L2(hG4DM) (antibody, human IgG4 S228P, kappa, F234A L235A)
heavy: not shown
light: DIQMTQSPSSLSASVGDRVTITCRSSQHVSTALAWYQQKPGKSPKLLIYSASSRYSGVPDRFSGSGSGTDFTFTISSLQPEDFATYYCQQHYITPWTFGGGTKLEIKRTVAAPSVFIFPPSDEQLKSGTASVVCLLNNFYPREAKVQWKVDNALQSGNSQESVTEQDSKDSTYSLSSTLTLSKADYEKHKVYACEVTHQGLSSPVTKSFNRGEC
notes: Humanized anti-TIGIT antibody, IgG4 with F234A and L235A (EU numbering)
EC50 (human TIGIT-mFc [4]): 1.42 nM

B3: RG6058(hG4) (antibody, V domains shown)
VH: EVQLQQSGPGLVKPSQTLSLTCAISGDSVSSNSAAWNWIRQSPSRGLEWLGKTYYRFKWYSDYAVSVKGRITINPDTSKNQFSLQLNSVTPEDTAVFYCTRESTTYDLLAGPFDYWGQGTLVTVSS
VL: not shown
notes: Positive control anti-TIGIT antibody from CN108290946A; also called RG6058(hG4WT)
EC50 (human TIGIT-mFc [4]): 1.68 nM | EC50 [5]: 1.61 nM | EC50 (human TIGIT-mFc [6]): 0.055 nM

B4: Tiragolumab (antibody, human IgG1, kappa, V domains shown)
VH: B3 VH
VL: not shown
notes: Positive control anti-TIGIT antibody; also called RG6058(hG1WT)
EC50 [7]: 1.28 nM | EC50 [8]: 0.837 nM

B5: 26B12 (antibody, V domains shown)
VH: EVQLQESGPGLVKPSQSLSLTCTVTGHSFTSDYAWNWIRQFPGNRLEWMGYISYSDSTNYNPSLKSRISITRDTSKNQFFLQMNSVTTEDTATYYCARLDYGNYGGAMDYWGQGTSVTVSS
VL: DIVLTQSHEFMSTSLRDRVSITCKSSQHVSTAVAWYQQKPGQSPKLLIYSASYRYTGVPDRFTGSGSGTDFTFTISSVKAEDLAVYYCQQHYITPWTFGGGTKLEIK
notes: Murine hybridoma antibody; also called anti-TIGIT antibody 26B12; monoclonal antibody secreted by hybridoma cell line LT019
binding result (human TIGIT-hFc): binds
